The target of this assay is cynomolgus PAR-2 on cells (cynomolgus monkey). Put plainly: cell-based or functional assay.

B1: P24E1102 (antibody, human IgG4 S228P, kappa, V domains shown)
VH: QVQLVQSGAEVKKPGSSVKVSCKASGFSLSSYAISWVRQAPGQGLEWMGVIWGNQNVYYAQKFQGRVTITADESTSTAYMELSSLRSEDTAVYYCARWKGYKDYPFDYWGQGTLVTVSS
VL: EIVLTQSPATLSLSPGERATLSCRASQNVYKWLDWYQQKPGQAPRLLIYNANTRATGIPARFSGSGSGRDFTLTISSLEPEDFAVYYCQQHHSGWTFGGGTKVEIKR
Consider B1, for which the IC50 mean, calcium flux at SLIGKV EC80, Nomad line came to 3.98 nM and the IC50 mean, β-arrestin at SLIGKV EC80, Nomad line worked out at 15.2 nM.

The values above are taken from patent US20220056125A1.
